Tests used:
[1] = tested on: AGPPase (soluble and particulate isoforms); assay: AGPPase enzymatic assay (two-step spectrophotometric determination of G1P produced from ADPG); type: biochemical, barley (Hordeum vulgare), tomato (Lycopersicon sculentum)
[2] = Stability of AGPPase to pH and temperature; type: physicochemical; details: 65° C. for 30 minutes

Row | Resistance of AGPPase to ionic detergents and proteases [1] | Molecule | Heat resistance of soluble AGPPase [2]
1 | resistant | K proteinase: protease (Boehringer) (protein, UniProt P06873 106-384, looked up) Proteinase K: AAQTNAPWGLARISSTSPGTSTYYYDESAGQGSCVYVIDTGIEASHPEFEGRAQMVKTYYYSSRDGNGHGTHCAGTVGSRTYGVAKKTQLFGVKVLDDNGSGQYSTIIAGMDFVASDKNNRNCPKGVVASLSLGGGYSSSVNSAAARLQSSGVMVAVAAGNNNADARNYSPASEPSVCTVGASDRYDRRSSFSNYGSVLDIFGPGTSILSTWIGGSTRSISGTSMATPHVAGLAAYLMTLGKTTAASACRYIADTANKGDLSNIPFGTVNLLAYNNYQA | 
2 |  | Soluble AGPPase: soluble isoform of AGPPase purified from barley leaves, a germin-like glycoprotein (protein, Hordeum vulgare cv. Scarlett; Soluble AGPPase deduced from cDNA, soluble isoform of AGPPase purified from barley leaves, a germin-like glycoprotein) MANAMLLPVLVSFLVLPFSAMALTQDFCVADLSCSDTPAGYPCKTGVGAGDFYYHGLAAAGNTSNLIKAAVTPAFVGQFPGVNGLGISAARLDIAVGGVVPMHTHPAASELLFVTEGTILAGFISSSSNTVYTKTLYKGDIMVFPQGLLHYQYNGGSSSAVALVAFSGPNPGLQITDYALFANNLPSAVVEKVTFLDDAQVKKLKSVLGGSG | resistant

Reference: patent publication US7205150B2, “Transgenic plants over-expressing plant ADP-glucose pyrophosphatase” (Universidad Publica de Navarra, priority 2000, dated 2007)
